Test results as given in patent publication US20080060092A1.

Legend:
[1] = biological target: FcγRIIIa on human effector cells of a FcγRIIIa Phe/Phe^158 homozygote donor (human) (UniProt P08637); experiment: cell-based or functional assay
[2] = biological target: FcγRIIIa on human effector cells of a FcγRIIIa Phe/Val^158 heterozygote donor (human) (UniProt P08637); experiment: cell-based or functional assay

| ADCC, maximal percent cell lysis of L540 target cells [1] | ADCC, maximal percent cell lysis of L540 target cells [2] | ADCC EC50, times lower than MDX-060 CHO [2] | ADCC EC50, times lower than MDX-060 LEX [2] | Substance |
| --- | --- | --- | --- | --- |
| 15% | 31% | – | – | MDX-060 CHO (antibody) |
| 27% | 31% | – | – | MDX-060 LEX (antibody) |
| – | – | 5 fold | 3 fold | MDX-060 LEX^Opt (antibody) |
